Measurements taken from the supplement of paper PMC9170038.

Tested on: MS2 coat protein
Assay: apparent KD of MS2 coat protein; designed switch direction (-1 OFF switch, 1 ON switch): 1; higher = weaker reporter binding
Method in brief: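 Three titration conditions were used: no input, 200 uM small-molecule ligand, and an oligonucleotide input. In each, SNAP-549-labelled MS2 coat protein was raised from 0.7 or 1.5 nM, doubling, to 3 µM over designed RNA switches transcribed on Illumina chips by stalled E. coli RNA polymerase. Curve fits of normalised cluster fluorescence gave values whose per-design median over clusters is the apparent KD.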

[1] = Eterna round: R95, input ligand: FMN 200 uM
[2] = Eterna round: R95, input ligand: microRNA oligo, concentration not stated
[3] = Eterna round: R95, input ligand: none
[4] = input ligand: microRNA oligo, concentration not stated

Sequence | apparent KD of MS2 coat protein [1] [nM] | apparent KD of MS2 coat protein [2] [nM] | apparent KD of MS2 coat protein [3] [nM] | apparent KD of MS2 coat protein (input ligand: FMN 200 uM) [nM] | apparent KD of MS2 coat protein [4] [nM] | apparent KD of MS2 coat protein (input ligand: none) [nM]
ACAAGCUUUUCUGUAUUGAAAGGUGGGAUACAUGAGGAUCACCCAUGUUUUUUCGUUUGUUUUGUUCCUCGUCUUAU [JR_SHM208A_Sub090] (puzzle: Sensor for hsa-mir-208a) | 87.7 | 23.9 | 116 |  |  | 
GGAGCCGGUACUGAGGAUAUUCAUAUUAAAACAUGAGGAUCACCCAUGUAGGCCAGAAGGCCUUGGGAGAAGGCGGACCAGCUCG [Atgexeedri - 1] (Eterna round: R96, puzzle: Same State 2) |  |  |  | 27.5 | 302 | 417
GGAUGAUAGACAGGAUAUUGAAUGUAAAUAGGACAAGAAGGGUCAAUGAUUUAAACGACCAGUUACAUGAGGAUCACCCAUGUU [JR_SSNG1_Sub024] (Eterna round: R96, puzzle: Same State NG 1) |  |  |  | 29.4 | 36.7 | 36.6
GGAGCCGGUACUGAGGAUAUUCAUAUUAAAACAUGAGGAUCACCCAUGUGGGCCAGAAGGCCUUGGGAGAAGGCAGAUCGGCUCC [Biseusra - 3] (puzzle: Same State 2) | 19 | 93.3 | 145 |  |  | 
CGACACACGGCAGGAUAUCGAUUCCAAAGGAAUCGAGAAGGGCCUCAUGUCGUGGAAACGUGACAUGAGGAUCACCCAUGUCGC [Omei SS(NG)1 Cv17] (Eterna round: R96, puzzle: Same State NG 1) |  |  |  | 17.2 | 11 | 16.9
UCUCUUAUCGUAGGAUAUGUAGGAUAUGUACAUGAGGAUCACCCAUGUCUACCAGAGACAGAAGGACAGAAGGACGAACCACUC [pwkr ssNG2 2FMN 1F5s.4] (Eterna round: R96, puzzle: Same State NG 2) |  |  |  | 43.4 | 51.7 | 80.7
AAUCGUUUGAUAGGAUAUCGCUAUACAUGAGGAUCACCCAUGUUUACCACGCUGGUUUUUCAUACCGAGAAGGAUUCUGAUGAA [salish99_SSNG02_r04_003] (Eterna round: R96, puzzle: Same State NG 2) |  |  |  | 31.5 | 27.1 | 33.4
CUGCAACAUGAGGAUCACCCAUGUAACCCAAUUAUAGGAUAUGUGAUAGUGAUCGACAUGACAGAAGGGUGAUUGG [Riraence] (puzzle: Same State 1) | 149 | 188 | 291 |  |  | 
UGGCUCAGACUAGGAUAUACGUGGUCACAUGAGGAUCACCCAUGUCUCGAGCUUCGGCUCGAGGCGUAGAAGGAGUCUGAGCCU [SSNG2/6-D3] (Eterna round: R96, puzzle: Same State NG 2) |  |  |  | 126 | 245 | 334
AGCUAUUAAUCAGGAUAUGGUGACAUGAGGAUCACCCAUGUAUAGAUGAUUAAAUGUGGUCUAUACCAGAAGGGAUUACUAACA [SameState NG2 #52] (Eterna round: R96, puzzle: Same State NG 2) |  |  |  | 55.5 | 247 | 356
AAGGGCGGAAACGACAUGAGGAUCACCCAUGUUGCCGAAAGGCAGGAUAUCCGGCGAAAGCAGAAGGAGAAGGGUCAAGAACCA [AK SSNG3-V2-43] (Eterna round: R96, puzzle: Same State NG 3) |  |  |  | 38.9 | 24.7 | 43.8
GUAAAACAUGAGGAUCACCCAUGUCAACAAAGUCGAGGAUAUGGGCAUAUAUUAUAUGAACCAGAAGGCGAAUAUG [Mat - Same State 1 - Mod of UCT - D27] (puzzle: Same State 1) | 14.6 | 43.1 | 33.9 |  |  | 
AUGCCAAAAUGAGGAUAUGGAGCCUUAUUGGCUCCAGAAGGCGUGACAUGAGGAUCACCCAUGUGGCAGUGGUCUAAUGACCAC [Eli NG1ss - 44] (Eterna round: R96, puzzle: Same State NG 1) |  |  |  | 21.9 | 53.3 | 77
GCUCGAUGAGCGGUUUACAUGAGGAUCACCCAUGUACGUGGGCAGGAUAUUUACGUGCUUUGUGUAGAGAAGGGCCCAUCGAGC [SameState NG3 #73] (Eterna round: R96, puzzle: Same State NG 3) |  |  |  | 39.8 | 191 | 405
GAGAGAUGGCGAGGAUAUGCGGUGAUAAUGAUGGCAGAAGGCGCUGACAUGAGGAUCACCCAUGUGGGAAUAAUCCAGAGAGAG [Parity 17 - Jieux - Same State NG 1] (Eterna round: R96, puzzle: Same State NG 1) |  |  |  | 279 | 564 | 683
UGGCUCAGACGAGGAUAUAUGUCUCGAGCUUCGGCUCGAGACAUGAGGAUCACCCAUGUAAUAACAUAGAAGGCGUCUGAGCCU [SSNG2/1-A3] (Eterna round: R96, puzzle: Same State NG 2) |  |  |  | 12.6 | 29 | 34.3

Sequence | apparent KD of MS2 coat protein [1] [nM] | apparent KD of MS2 coat protein [2] [nM] | apparent KD of MS2 coat protein [3] [nM] | apparent KD of MS2 coat protein (input ligand: FMN 200 uM) [nM] | apparent KD of MS2 coat protein [4] [nM] | apparent KD of MS2 coat protein (input ligand: none) [nM]
AAACAGCCGAACGGAGGGCCACAUGAGGAUCACCCAUGUACAUAGGAUAUCAUGCCAACGAGGCAUGAGAAGGGUGAUUAAAAC [Usinvema] (Eterna round: R96, puzzle: Same State NG 3) |  |  |  | 11.7 | 350 | 359
ACAAGACAUGAGGAUCACCCAUGUAUAAAUUACACAGGAUAUCGGCAGGCAGCACCUGCACGAGAAGGGUGACUUC [Inbilera] (puzzle: Same State 1) | 193 | 21.7 | 27.3 |  |  | 
GCUAGAAUUAAAGCCAACAUGAGGAUCACCCAUGUAUGUUGGUAGGAUAUCGUUUGCUUUGCAAACGAGAAGGGCUAAUCUAGC [JL SSNG3 1.22] (Eterna round: R96, puzzle: Same State NG 3) |  |  |  | 62.4 | 59.8 | 69.2
GCGGAACAUGAGGAUCACCCAUGUGGAGGGUGUAAAGGAUAUUAUAGAGAGAAGGUAGGGUAAGAAGGUUGCUUGG [JR_SS1_Sub089] (puzzle: Same State 1) | 202 | 96 | 541 |  |  | 
AUAUAACAUGAGGAUCACCCAUGUCAACAAAGUCGAGGAUAUGGGCAAAUAAAAUAAGAACCAGAAGGCGAAUAAU [salish99_ss1_r3_047] (puzzle: Same State 1) | 42.2 | 462 | 693 |  |  | 
UGUUGUAUUACAGGAUAUCUAUUAGUUUUUUUUAGAGAAGGGUAUUCACAUGAGGAUCACCCAUGUAUAUACGAGGAAGUUGUG [JMF's solution 96] (Eterna round: R96, puzzle: Same State NG 1) |  |  |  |  | 36.8 | 
GUAGCAUACCGAGGAUAUUCAUACAUGAGGAUCACCCAUGUUAAUAGGCCACAUUAGUGGCCUUGGGAGAAGGCGGAAUGCUAC [Xeonanis - 20 Mod46] (Eterna round: R96, puzzle: Same State NG 2) |  |  |  | 14.1 | 10.7 | 16.6
CGAUGAUACUUAGGAAGAAGAGUUGAGGUACAUGAGGAUCACCCAUGUCGGAGCUUUUUGCUCGUCAUGAACAGGAA [JR_SHM208a_Sub007] (puzzle: Sensor for hsa-mir-208a) | 65.2 | 34.8 | 79.5 |  |  | 
AUGCCAAAUGGAGGAUAUGGAGCCUUAUUGGCUCCAGAAGGUCGGACAUGAGGAUCACCCAUGUGGCAGUGGUCUAAUGACCAC [Eli NG1ss - 42] (Eterna round: R96, puzzle: Same State NG 1) |  |  |  | 242 | 293 | 463
UUGAAGAACUAAGGAUAUUGAAUACAUAUGUUUAACAUGAGGAUCACCCAUGUGGGUUGCGGUAUCGAGAAGGUAGAUUACUAG [Mat - Same State NG 2 - JL mod - D10] (Eterna round: R96, puzzle: Same State NG 2) |  |  |  |  | 83.4 | 
CACGUCCAGGUAGGAUAUGAGGUGCCACAGGGAAAAGCCUGUGGACAUGAGGAUCACCCAUGUCCUCAGAAGGGCCGGACGUGG [Reanorge] (Eterna round: R96, puzzle: Same State NG 2) |  |  |  | 17.3 | 52.8 | 72
GUAGCAUACCGAGGAUAUUCAUAUUACAUGAGGAUCACCCAUGUUAGGCCACAUUAGUGGCCUUGGGAGAAGGCGGAAUGCUAC [Xeonanis - 20 Mod40] (Eterna round: R96, puzzle: Same State NG 2) |  |  |  | 14.6 | 69.7 | 104
CGACACACGGCAGGAUAUCGAUUCCAAAGGAAUCGAGAAGGGCCUCAUGUCGUGGAAACGUGACAUGAGGAUCACCCAUGUUGC [Omei SS(NG)1 Cv18] (Eterna round: R96, puzzle: Same State NG 1) |  |  |  | 26.8 | 11.6 | 24.6
GUAGAUGUAGAGGAGGAUAUUCAAUGAGGAACAUGAGGAUCACCCAUGUAAGAGAGAGAUGAUAGGAAGAAGGCUUAGAGAGAUG [Altered State 2-5 - Jieux - Same State 2] (puzzle: Same State 2) | 24.2 | 31.7 | 43.1 |  |  | 
GCUCGUGGUAUUGUCUACAUGAGGAUCACCCAUGUAGGUGCGGAGGAUAUCUACGUGUCUCAUGUAGAGAAGGCCGUCACGAGC [SameState NG3 #98] (Eterna round: R96, puzzle: Same State NG 3) |  |  |  | 20.3 | 36.2 | 89.4
